T1: CCL5_HUMAN (human), P13501
T1 chain: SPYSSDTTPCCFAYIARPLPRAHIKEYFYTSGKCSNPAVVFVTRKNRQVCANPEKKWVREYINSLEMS

T2: CCL19_HUMAN (human), Q99731
T2 chain: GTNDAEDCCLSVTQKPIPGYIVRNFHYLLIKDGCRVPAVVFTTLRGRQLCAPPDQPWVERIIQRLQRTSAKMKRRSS

T3: CX3CL1_HUMAN (human), P78423
T3 chain: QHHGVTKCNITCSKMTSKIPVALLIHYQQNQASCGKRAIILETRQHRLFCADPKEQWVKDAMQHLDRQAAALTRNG

B1: P974_AMBCA, A0A023FDY8 22-118 (protein)
chain: ENTQQEEQDYDYGTDTCPFPVLANKTNKAKFVGCHQKCNGGDQKLTDGTACYVVERKVWDRMTPMLWYECPLGECKNGVCEDLRKKEDCRKGNGEEK
B2: P546_AMBCA, A0A023FBW7 22-118 (protein)
chain: ENTQQEEEDYDYGTDTCPFPVLANKTNKAKFVGCHQKCNGGDQKLTDGTACYVVERKVWDRMTPMLWYSCPLGECKNGVCEDLRKKEECRKGNGEEK

How the values were obtained:
[1] = target: T1, CCL5_HUMAN (human), P13501; test: BLI; details: other; chains chain; remark: other sources report otherwise
[2] = target: T2, CCL19_HUMAN (human), Q99731; test: microscale thermophoresis, AlexaFluor 647 labelled chemokine; details: remark: other sources report otherwise
[3] = target: CCL20_HUMAN (human), P78556; test: as above; details: remark: other sources report otherwise
Sequence of CCL20_HUMAN (human), P78556 (P78556 27-96 limits assumed): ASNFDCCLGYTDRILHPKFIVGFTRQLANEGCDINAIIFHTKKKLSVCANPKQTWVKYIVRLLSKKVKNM

[4] = target: T1, CCL5_HUMAN (human), P13501; test: as above; details: remark: other sources report otherwise
[5] = target: T3, CX3CL1_HUMAN (human), P78423; test: as above; details: remark: other sources report otherwise
[6] = target: CXCL10_HUMAN (human), P02778; test: as above; details: remark: other sources report otherwise
Sequence of CXCL10_HUMAN (human), P02778 (P02778 22-98 limits assumed): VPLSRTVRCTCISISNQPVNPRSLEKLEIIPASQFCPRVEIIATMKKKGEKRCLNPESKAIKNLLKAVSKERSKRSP

[7] = target: CXCL12_HUMAN (human), P48061; test: as above; details: remark: other sources report otherwise
Sequence of CXCL12_HUMAN (human), P48061 (P48061 22-89 limits assumed): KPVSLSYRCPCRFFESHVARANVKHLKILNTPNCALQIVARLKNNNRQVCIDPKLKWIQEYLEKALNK

[8] = target: CXCL8_HUMAN (human), P10145; test: as above; details: remark: other sources report otherwise
Sequence of CXCL8_HUMAN (human), P10145 (P10145 28-99 limits assumed): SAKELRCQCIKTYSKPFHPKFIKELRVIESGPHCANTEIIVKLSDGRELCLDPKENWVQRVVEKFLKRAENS

Row | Binder | Kd [1] | Kd [2] | Kd [3] | Kd [4] | Kd [5] | Kd [6] | Kd [7] | Kd [8]
1 | B1 | 160 nM | – | – | – | – | – | – | –
2 | B2 | – | 367 nM | 232 nM | 128 nM | 140 nM | 104 nM | 71 nM | 56 nM

— US20220175942A1
